The target in the experiment is MYC-tagged Exo70 wild-type (in MTLn3 cells) (UniProt Q9UPT5). Description: proximity ligation assay. Particulars: N = 3 experiments.
Sequence of UniProt Q9UPT5 (Q9UPT5 whole entry): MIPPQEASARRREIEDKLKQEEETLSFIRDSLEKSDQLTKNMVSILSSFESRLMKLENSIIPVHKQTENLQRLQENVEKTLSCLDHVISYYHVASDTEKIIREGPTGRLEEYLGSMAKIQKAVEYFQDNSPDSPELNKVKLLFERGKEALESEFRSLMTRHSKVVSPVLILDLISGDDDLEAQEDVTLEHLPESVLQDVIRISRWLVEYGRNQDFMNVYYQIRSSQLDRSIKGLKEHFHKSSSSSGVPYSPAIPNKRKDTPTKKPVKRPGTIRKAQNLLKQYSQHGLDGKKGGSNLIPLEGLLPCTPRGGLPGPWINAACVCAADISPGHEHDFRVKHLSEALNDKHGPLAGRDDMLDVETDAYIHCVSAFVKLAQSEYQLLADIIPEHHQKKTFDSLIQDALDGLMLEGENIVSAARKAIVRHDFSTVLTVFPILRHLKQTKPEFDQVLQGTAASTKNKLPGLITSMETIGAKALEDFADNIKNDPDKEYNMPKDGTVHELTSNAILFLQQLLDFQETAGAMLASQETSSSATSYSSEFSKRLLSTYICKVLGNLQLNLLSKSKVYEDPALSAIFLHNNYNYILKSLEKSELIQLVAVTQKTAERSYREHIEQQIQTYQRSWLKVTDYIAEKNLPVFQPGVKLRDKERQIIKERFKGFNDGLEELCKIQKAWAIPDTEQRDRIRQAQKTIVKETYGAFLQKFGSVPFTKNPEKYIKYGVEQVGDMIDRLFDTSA

Consider “Flag-tagged TC10 wild-type (in MTLn3 cells) P43L; E45V; Y46H; T49A; Y54C”, for which the other: % invadopodia with PLA spots at core (% invadopodia) (category: core, parent: est. 23, read off a plot) was 16. Further, the other: % invadopodia with no PLA spots (none) (% invadopodia) (category: none, parent: est. 33, read off a plot) was determined as 55. In addition, the other: % invadopodia with PLA spots at side (% invadopodia) (category: side, parent: est. 44, read off a plot) was found to be 29.

Source of the values: publication PMC8445963.
